In a protein production outcome set (Wang et al. 2014):

Assay: label from the status in PepcDB records
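Also: failed if final PepcDB status was selected cloned or expressed and not failed if soluble or beyond.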

Q: For “MDSRAAAEPIPHVSPSPFPNPSAVNQTLEERLGLDLVQVYDWDWWGTLVQSGESLLLILSTLWCILLARVVCQKLRLHGSADLCYATEFLLVILPCILLVSVAVDYSGYIGLLMLVATLWFLRTSRALERARTRVQFDLGGNRPMCLSILRALTHLITAVCILAIDFGSFYRPYRKSRQFGAKLMDTGIGLFVFTMAMVSRRTRHWSDLRRSVIYSALPLILLGLARTVSILTLSYGQDAHEYGQHLNAFFTLGFTKFLGSLVSILARKDLHLLPLGFGLLVIHQFGLSVLGISDYVMNEDVERSSFLNANREGLVSLPGFVGLFLLSIYVNRWMVAKSLLTYSEFVRKLRRLFYLVLILWTSFVISAYEIGISRVTCNLGYVIWMLAIGSTTLCASFGAIDFAINSVMPWDPNPWEDHEKGLLSGEAVVKKRGGSVVPFTISQALNKNGLTFFLVANILTGMVNIFLRPEDRSHSESVIILLVYMFLATKLVHELLKRGIRLA”, which protein production is on record?
A: The protein production was “failed”.

Q: With “MDSSDSHVGQDVYVDQGLGEPDRLERLWAPYRMSYINTRSGGKQSTTAKRDPFIEVPKMSDEDGLIVARGELVYCVLNLYPYNAGHMMVIPFRKEKNLEDLSLAESAELMLFTQTAIKALKQVSNPDAVNVGLNLGKASGGSVGDHLHVHVVPRWSGDANFMTVIDGVKVLPQTLRQTRAMLAQAWGTIDGAPGTVDPTLTSAIRTAAPKEH” as the sequence, how does the protein production read?
A: Its protein production is “failed”.

Q: Which protein production does the source give for “MDSVELCLPESFSLHYEEELLCRMSNKDRHIDSSCSSFIKTEPSSPASLTDSVNHHSPGGSSDASGSYSSTMNGHQNGLDSPPLYPSAPILGGSGPVRKLYDDCSSTIVEDPQTKCEYMLNSMPKRLCLVCGDIASGYHYGVASCEACKAFFKRTIQGNIEYSCPATNECEITKRRRKSCQACRFMKCLKVGMLKEGVRLDRVRGGRQKYKRRIDAENSPYLNPQLVQPAKKPYNKIVSHLLVAEPEKIYAMPDPTVPDSDIKALTTLCDLADRELVVIIGWAKHIPGFSTLSLADQMSLLQSAWMEILILGVVYRSLSFEDELVYADDYIMDEDQSKLAGLLDLNNAILQLVKKYKSMKLEKEEFVTLKAIALANSDSMHIEDVEAVQKLQDVLHEALQDYEAGQHMEDPRRAGKMLMTLPLLRQTSTKAVQHFYNIKLEGKVPMHKLFLEMLEAKV” here?
A: The protein production was “not failed”.

Q: With “MDTAVNESLSISYNLEQFLIVLSVSLSIATLSKTVPILRKIPYTLLLVIVGMALAFVDVKLINLSPELIMEIFLPPLLFEAAWNLQWRNLKENWFPITLFATLGVVICVVGIAFPLSYWGGMELAIAFLAAAALSATDPVSVIALFKELGASKKLNTLMEGESLFNDGVAVVVFLILVGIPLGTSTFDLSVTLARFVTVIGIGVGCGLVIGFSLSLLTQRFDLPFVEQSLTLVSAYGAYILAENLGGSGVIGVVVVGMVLGNYGSRIGMNPRTRLIVSIFWEFVAFFVNSIIFLLIGDQIGLSSLSDHLNLILIAIAAVVVTRLVSVFGLSLISNKVSDQISSTHITLQEQTVLWWGGLRGSVAIAVALSVPQAIAERQAIIDIVFGVVLFTLLVQGLTTQFVLKGLDLIGDQPQRLEYAELVSRQIALRRVLAELEKTDEFPDINPERLRYKQELVQGQLQSVTDKLKLLLQEYPLLQEVANKKFDQTVLDIEAETYADLIRMGRLEENIMPLLVTLEGENVAEPS” as the sequence, how does the protein production read?
A: Its protein production is “failed”.

Q: With “MDTEIHNPHIPGGRPPSRPAIAALTFVIFMSLTLASWSVVQDLQERHENTRFDKRVAEVIHKIEHHFSGYEQVLKGALGHLLASPSVSRNEWRTYVNALRINDRYPGIHGIGFAKYIPRSGLAAHTEEVRAEGFPSYKVWPGTPRQEYTSIIYLEPFTGSNLRAFGYDMFSNAVRRAAMSRARDTGEVALTRKVKLVQETGEDIQAGVLMYLPYYGAANLPKTVEERRASLGGYVYAPFRMVDFVRATLGSELDILDLRIFDGKAMAEDSLLFDSVKHRSGPSPVPKFKRVIPISLYGQTWALEASSRPAFEKAIKNYEALLVLLGGFVVSMLTAMVSFVLSGNKEKAAALGHVNKKLLLAMEEQQATTRELSNAKLRTERILESITDAFYTLDREWRFTYVNKEAENLLQRNREDLLGRVCWEEFKETAGTTFDREYHRALMENRTVTFEEFYVPLDEWFEVHAYPSEEGLTVYFRDITERKESEQARQEAHVRIRQQASLLDKATDAIIVFGMDNCIEFWNQGAERLYGWTSEEVMGREVEMLYDNVAVFDEANRALLSSGEWRGELAQRRRDQSMLNVEAHWTLVRNDDGEPQAIFAINTDITQRKSAENEILHLALYDSLTGLPNRRLLLDRLGHALAVSARNQRMGALLFIDLDNFKLLNDTLGHDMGDLLLRQVAPRLSSCVRESDTVARLGGDEFVVILMGDFGEDHDEALTQISTICERIRSAFIQPFNLDPYIHHITPSIGIALFNDQSQTTNELLKRADLAMYQAKASGRNAMRFFDPDMQAAMNARAILESELYKSWERNEFILHYQLQVDSRGIIGAEALVRWQHPRRGLLPPSEFIPQAEETGLILPLGEWVLETACNQLASWALQPETVQLNLSVNVSSLQFCQPDFVEQVISILDRTGANPQRLKLELTESILVHDMDDTIAKMMTLKARGVGFALDDFGIGYSSLYYLKRLPLDWVKIDRSFVRDVLTDNNDATIVRTILLLAKSMGLAVIAEGVETGAQKDFLASHGCTAYQGYLFSRPLPLEQFERFVQPAAGGAV” as the sequence, how does the protein production read?
A: Its protein production is “failed”.

Q: For “MDTKKIKTSCLINNYNYAAFLSEAVASTLRQTVKFDEIIIVDDASTDNSAEVIAKFAQQADIKYILKEKNQGQLSSFNEAFLNASGDIIFFLDADDAYEPEYLETVLNFYNRRSECDFVFCAYKKFGAVEGTFQDYEIDVDLGYSVIRTLCNGEWIGSITSTLSMRRDILRKVLPIPNTEDWRVRADDCLVWGASLVGAKKFYLSQPLVRYRIHQNNQFHNSKFVNTDKDYEYKRFWKRNSLFNYILQKNNLELPFLLAFTSLNELKTIPCPNNQDFISYLKIIFLFEKNVYWKIKGIFLLFNYLGKFLLNGKLQIR”, which protein production is on record?
A: Its protein production is “failed”.

Q: Which protein production does the source give for “MDTLPHHLLDEILFRIDHRSLAMIQCTNRSLQSHISKTPNFASEYFSRIRSSLLYIATHGCPLICYHLYGDSRSPRTVETLTQCHILGYCSGLLLLFLNKNLCVANPLTKKFRFLNHSRSKFFPTDFTLRGGRQQVIGFAVDQTDRTTPSFKIVNIKEGAVHWLRNDGSIVAFNLKTEKARLIPIRFPKELCLKTLFTAVDNNLTLISATEEVIYVYAFHNILSDPKWVLVKQIRNGVLDEKRLYSWYVEAYDGKSLVLRETILKKDYYNKHLKQVLHGYDLRANKWEVIGSIPEWSPSGLDFYQFTPSPSSVIGLDDKEGEEILACDDKRIPSVNAIMRLIYGIS” here?
A: The protein production was “failed”.

Q: Which protein production does the source give for “MDTNYKMLYEKYEKLKNEFSTYQNFAETQIQRMNGKNTELEKKLDILTNVIEVSKYINSNISDDNLVPMINDMIIGILGVTYSTIYLVEDDEKLIVKASNVMDNYDIIVNPVFSTFSDNRPIVINSKEPLFKEFKNKLKVHSIIGVPITLRDNFRGYIIVEHTLYDFFSHGHIKFISSIANQIAIAIENSFLYKKVKESSIKDPFLGIYNRKHFFDMIEGKVAKDSRRSFAIVMLDIDHFKSFNDSYGHQFGDEVLIQTAKILEQSIGEKDEVARYGGEEIVLYLNDAQSKEKVFKTVDGIRASLSNNSVRHGGIEKRVTASFGISYYPQNGETVEKVVSVADAMLYEAKNSGRNKVVSSL” here?
A: The protein production was “failed”.

Q: For “MDTQNLPDQIIPIFMSFDKNYALGASVSLYSLLSHASRHTSMIDFSPLNQSNKLLGANIVYKIHCLVKGVTLEQQNKLLKTIAPFKKFASLEFIHINSLDHSIESYLNKSCSKRYGGLLVLCRLLLASLFPNYSKIISIDADTVFLGDVASAYFALDNDPTKSLGMVRDTFSHLSFEAFCDFCKRACKNFKIDFSRFSPDELKRIHQGFNMGFLVAHLDRWRQDGFEKTALEFLKTRGKDLFYPEQCLVNMVFWERILELPIYYNCYSDFFKEHYPKNIIMLHFIKYKPWRSVSSLNGRLICYEAEASFWLANLFHTPFKNDFFKERLEMAKDQQMQSFKTHIRSQTIRNYLGFRVKNILKKVFKLSLEHHHHHH”, which protein production is on record?
A: Its protein production is “not failed”.

Q: Which protein production does the source give for “MDTQTLNSDLRVFMHHIYEFEKGVRSMVLATLANDDIPYAEERLRSRQIPYFAQPTPNTERTNLFFGCKECMEAIRLFVSGRSLNSLTPEEDFIIGAMLGYDICRQCERYCRRKSNS” here?
A: Its protein production is “not failed”.

Q: With “MDTVILITVIIVIVGLAFDFINGFHDIANAVATSISTRALKPRVAIGIAAVMNFLGAISFTGVAESLTKSIVDPFSLNNGEFVVLCGLIAAVIWNLMTWLVGMPSSSSHALIGAIAGASIASASSFSVLNWSGFTTIIIALIISPIIGFTVGYLIYSLFKHLFHDKKLGKMNRRFRFIQIGTAAAQAYSHGTNDAQKTMGIITLALVASGLLKESAGIPFWVQVSCAASMAIGSSVGGYRIIKTVGTKIMKITPVTGVASDLSSLSVIMTATLIHLPVSTTQVIDSSIMGVGTANHKKEVNWRTGKNMVVTWFITLPLAGLLAAVVYWISAAIFL” as the sequence, how does the protein production read?
A: Its protein production is “failed”.
